Measurements as given in publication PMC10528150, “Mutant Cytochrome C as a Potential Detector of Superoxide Generation: Effect of Mutations on the Function and Properties” (Cells, 2023).

B1: cytochrome c wild type (recombinant horse heart CytC) (natural protein)
chain: not shown
modifications: heme c (hemoporphyrin type c, Fe ligated by His18 and Met80)
B2: cytochrome c with substitutions K8E/K27E/E62K/E69K/K72E/K86E/K87E/E90K (natural protein)
chain: not shown
modifications: heme c (hemoporphyrin type c)

Target: cytochrome c oxidase (ferrocytochrome c:oxygen oxidoreductase), solubilized complex
Experiment: cell-based or functional assay

Binder | Activity in the cytochrome c oxidase reaction, % of WT [%]
B1 | 100
B2 | < 1
